How the values were obtained:
[1] = molecular target: human GITR, membrane bound (on activated human T cells and on 3A9-hGITR cells) (human) (UniProt Q9Y5U5); assay: FACS: recombinant hGITR-L trimer titrated on PHA-activated human T cells, CD4 gate, PE anti-HA tag; direct binding curve; the sheet's table heads the row 'IC50', the text calls it EC50; unit from the axis
[2] = molecular target: human GITR, membrane bound (on activated human T cells and on 3A9-hGITR cells) (human) (UniProt Q9Y5U5); assay: FACS: recombinant hGITR-L trimer titrated on PHA-activated human T cells, CD8 gate, PE anti-HA tag; direct binding curve; the sheet's table heads the row 'IC50', the text calls it EC50; unit from the axis
[3] = molecular target: human GITR, membrane bound (on activated human T cells and on 3A9-hGITR cells) (human) (UniProt Q9Y5U5); assay: FACS competition on PHA-activated human T cells, GITR-L pre-bound, competitor 28F3-hIgG1 at 0.5 ug/ml; inhibition partial
[4] = molecular target: human GITR, membrane bound (on activated human T cells and on 3A9-hGITR cells) (human) (UniProt Q9Y5U5); assay: FACS, PHA-activated human CD4+ and CD8+ T cells, PE anti-HA tag
[5] = molecular target: human GITR, membrane bound (on activated human T cells and on 3A9-hGITR cells) (human) (UniProt Q9Y5U5); assay: FACS competition on activated human CD4+ T cells: GITRL pre-bound and titrated, then 28F3.hIgG1 (m11) at a fixed 0.5 ug/mL, detected with anti-human IgG Fc-PE; partial block; unit from the axis
[6] = molecular target: human GITR, membrane bound (on activated human T cells and on 3A9-hGITR cells) (human) (UniProt Q9Y5U5); assay: FACS on activated T cells, GMFI (PE); EC50 table under the plot; unit from the axis; fit of a flat control curve, see non_binding

Sequence of human GITR, membrane bound (on activated human T cells and on 3A9-hGITR cells) (human) (Q9Y5U5 26-241 limits assumed, form in doubt): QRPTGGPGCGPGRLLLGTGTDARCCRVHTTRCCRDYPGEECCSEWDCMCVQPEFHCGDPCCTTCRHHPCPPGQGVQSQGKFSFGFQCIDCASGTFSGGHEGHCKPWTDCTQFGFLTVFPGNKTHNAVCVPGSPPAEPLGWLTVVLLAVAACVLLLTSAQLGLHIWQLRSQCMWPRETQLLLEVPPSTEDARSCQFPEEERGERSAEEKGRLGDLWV

## recombinant human GITR ligand trimer (R&D Systems 6987-GL)
[1]
  EC50: 0.016 mg/L
[2]
  EC50: 0.0163 mg/L
[3]
  IC50: 0.0024 mg/L
[4]
  EC50: 0.016 mg/L
[5]
  IC50: 0.00244 mg/L

## unrelated hIgG1 (antibody)
[6]
  EC50: 0.132 µM

## unrelated hIgG2 (antibody)
[6]
  EC50: 0.00673 µM
